{
  "source": "paper PMC3618615",
  "about": "(Nature structural & molecular biology, 2013)",
  "target": "T1, EYA2 Eya domain (EYA2ED) (human, UniProt O00167-1 253-538)",
  "T1 sequence": "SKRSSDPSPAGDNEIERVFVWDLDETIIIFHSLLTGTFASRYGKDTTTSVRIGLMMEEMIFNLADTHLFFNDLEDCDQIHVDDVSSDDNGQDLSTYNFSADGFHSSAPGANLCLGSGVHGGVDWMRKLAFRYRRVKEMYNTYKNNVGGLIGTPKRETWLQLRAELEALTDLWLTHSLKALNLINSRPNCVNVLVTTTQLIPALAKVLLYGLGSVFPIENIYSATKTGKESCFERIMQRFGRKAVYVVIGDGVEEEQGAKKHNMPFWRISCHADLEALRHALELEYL",
  "test": "crystal structure",
  "data": [
    {"binder": "MBP-SIX1 (human SIX1 residues 1-189 fused to MBP_B) (domain or fragment, UniProt Q15475 1-189, looked up) MSMLPSFGFTQEQVACVCEVLQQGGNLERLGRFLWSLPACDHLHKNESVLKAKAVVAFHRGNFRELYKILESHQFSPHNHPKLQQLWLKAHYVEAEKLRGRPLGAVGKYRVRRKFPLPRTIWDGEETSYCFKEKSRGVLREWYAHNPYPSPREKRELAEATGLTTTQVSNWFKNRRQRDRAAEAKEREN", "values": [
      {"measurement": "binding result", "result": "binds"}
    ]}
  ]
}
